The values below come from PMC2978731 (PLoS Pathogens, 2010).

In assay [1] the target is T1, 5-Helix (tag-less version) (HIV-1 group M subtype B, HXB2 (gp41 …)). The assay is described as follows: cell-based or functional assay.
The target of assay [2] is T1, 5-Helix (tag-less version). The experiment in a line: ITC. Particulars: both partners purified.
Assay [3] addresses T1, 5-Helix (tag-less version). The experiment in a line: ITC. Particulars: both partners purified. This is another data set of the same source.

B1: Fab D5 (Fab, V domains shown)
VH: QVQLVQSGAEVRKPGASVKVSCKASGDTFSSYAISWVRQAPGQGLEWMGGIIPIFGTANYAQAFQGRVTITANESTSTAYMELSSLRSEDTAIYYCARDNPTLLGSDYWGAGTLVTVSS
VL: DIQMTQSPSTLSASIGDRVTITCRASEGIYHWLAWYQQKPGKAPKLLIYKASSLASGAPSRFSGSGSGTDFTLTISSLQPDDFATYYCQQYSNYPLTFGGGTKLEIK
notes: also called D5 (Fab format); D5 antibody; source: provided by Joseph Joyce (Merck Research Laboratories)
Regarding B1, in assay [1], the “HIV-1 neutralization IC50, Env-pseudotyped virus, 89.6 Env” value turned out to be 890 nM; the “HIV-1 neutralization IC50, Env-pseudotyped virus, HXB2 Env” value is 300 nM; the “HIV-1 neutralization IC50, Env-pseudotyped virus, JR CSF Env” value worked out at 640 nM; the “HIV-1 neutralization IC50, Env-pseudotyped virus, SF162 Env” value amounted to 1300 nM. Also, in assay [2], the dissociation constant (Kd) was approximately 10 nM.

B2: IgG D5 (antibody, V domains shown)
VH: B1 VH
VL: B1 VL
notes: also called D5 monoclonal antibody; D5 IgG; source: provided by Joseph Joyce (Merck Research Laboratories); copies: 2 + 2
Regarding B2, in assay [1], the “HIV-1 neutralization IC50, Env-pseudotyped virus, 89.6 Env” value is 2240 nM; the “HIV-1 neutralization IC50, Env-pseudotyped virus, HXB2 Env” value came out at 230 nM; the “HIV-1 neutralization IC50, Env-pseudotyped virus, JR CSF Env” value is 640 nM; the “HIV-1 neutralization IC50, Env-pseudotyped virus, SF162 Env” value was found to be 940 nM. The “stoichiometry N” value in assay [3] is 2 5-Helix per D5 IgG. The Kd in assay [2] was less than 20 nM.

As a reminder, the Kd is a measure of binding affinity in units of concentration. A low value points to a tighter complex.
